Experimental data as given in the DeepSol protein solubility set.

experiment: soluble on expression in E. coli; label from the status in PepcDB or PDB records

Row | Sequence | soluble on expression in E. coli
1 | MNKEAFERLPQEKKKIIETAYFSAVRKEISASQFFGVCKEALSKDQFESLFSSSTAGREQQEEMKTEHLQDIIQYSGVDLKEEAEHIVRETETNINFGEYEEEDVNNHIGSLMNVPLFREFVSRIGNSRRVGISEESFFLLFQVAKRKMLDIVEKMEESSKWRVEYNLSEFIIRIKNDLSRQLWCLEQIEKAEIEKFTIRRGEEEGRKKVKKTIQEREDLVIKKRLSNTVALAALGIQQKSWMSAEDVRVSEESTAFNSIYSPFDEKALERKVVNRTITMKDFLYVLERDRRYSKSVFTIQHYFRRGSA | not soluble
2 | MNKEMTLLPPPELVQYVGGDFKKVGKEFLKHFIQIGALKSNEKVLDVGCGVGRMAVPLMNYLNDDGAYYGFDLFKDGITWCQNNISTMRNNFHFEHVDIYNQFYNPEGKEDASQYRFPYEDGTFDFIFLTSVFTHLLPKELEHYVSEIVRVLKKDGRCFITFFLINPESSYYLNAGQSTLGFYHRIENCYVVNKDIPNFAVAYPETDICNLLNKYGLEIINKPHYGLWCGRHEYTSYQDIVLTKKSLEHHHHHH | not soluble
3 | MNKKSVGQPPEGLHETKSLASALPEKNAEQRPKYVQIVALPSEIKSRELPIAPDNVVYFNGPTHYLSALYPCTVVVDGNEYNSVEHYYQACKLYVLTGEQSAAQLKASETPIEVKKATKNILKEAKIPAKKISAWKDKDSIAVLKHVIYHKFNQNDELKVKLLDTGDKILIQTYIGDTYFAAGANAKYTSTWVDRHVNQSLKYPENVVVDNVQYLPLVANGKNVLGWILMQVRDELRMRSSA | soluble
4 | MNKLSRTDEENRQTEFSSSPLSDSVHSCLGFNRKKERKRRTSGDIEQTDKRKRTEERPSDKITFASNVFDNLARVTAERDNPEKLSKYKNIPGVGTRENIDEGISDINQPSSKSSGVKSKYVEVMSLFQKSIQKFSIMNLDYMYTFDWNHYSKKNIQYVVFTKVCQSHAPGHFVEMLKEDCSCRDCGSADLAVKVRLTVPLDLSDIPIPCSEDIQIHVSFLADDLLERHISSNVNRSSNRDDLDFSRRTCEKMYDLYQKMMRGQSSRMYTEWFDKCKIFVKNFLFSKSLHLYHGNVIRRKIEESQTLNKRRCFIFAQIFDLE | not soluble
5 | MNKLYIDSFVEKKLTAGVQLLDEKDFSNIKEKNQLVQLVTKSNRPIGTAYISKQNKGIGWYLGPEKIDLSISYFVSLFSVAKAKRQDFAQSDETNAYRLFNQEGDGFGGVTIDLYKDFAVFSWYNAFVYDKKEMIMEAFQQVFPEVKGAYEKCRFKGPDTETAHLYGELAQETFSILENGIAYQVFLNEGLMTGIFLDQHDVRRALVDGLAMGKSLLNLFSYTAAFSVAAAMGGAIETTSVDLAKRSRELSLAHFEHNQLNLASHHFVVMDVFEYFKYAKRKKLIFDVIVIDPPSFARNKKQTFSVSRDYHKLITEALDILSPKGTIIASTNAANMTVSQFKKQIIKGFGSRRPESMTLQQLPSDFTINKADERSNYLKVFTIKVRE | not soluble
6 | MNKMLYGWLLAACCGLPPAFAGDSVDVLAQPALHGPQALRAVLQDVARADARLVAVGERGVVLLSDDNGATWRQATAVPVGVSLTAVQFIDARNGWAVGHAGVVLHSQDGGEHWSVQLDGKRAAALEVQAAEAAADERRLAAAQRLLADGADKPLLALNFTDARNGLVVGAYGVAMRTDDGGRSWQSEIGRLPNGRGLHLYALARQGNQVYIAGEQGLLLRSRDGGEHYEALHGPYDGSYFAATVLPDGRLLLGGLRGSLFASDDGGDSFQALANPTPASINGLRVAGGQLLLANQAGMLLRSGLGAFAAQPVAVSDGLPLTAATTAADGSIVAVGMAGARRLEPSSLEHHHHHH | not soluble
7 | MNKNGFSRCADIYIGRLREEGRYSTAHVYQNALLSFSKFCGVHSVSFRQVTRERLRCYEQHLYECGLKPNTISTYMRMLRSIYNRGVEAGSAPYVHRLFHEVYTGVDVRQKRALPVVALRRLLYEDPQSDRLRRTQAIAALMFQFCGMSFADLSHLEKSALDSNVLRYNRVKTKTPMSVEVLDSAQEMLDQLRNRQSPRPGCPDYLFGILHGDKKRKDERAYREYQSALRRFNYCLKSLAKRLRLNFPVTSYTLRHSWATTAKYRGVPIEMISESLGHKSIKTTQIYLKGFELKERTEVNRMNLSYVKRCGVGQCI | not soluble
8 | MNKRNWTAYYNSTKQNTLPRKSLLKAIANFDKEKINLSKSAIDLGCGAGIDVMELLRCGWSVIAIDSQLSAIDSLLSSAQELTCANKLKTIISSFEALDSLPKVNLINASFSLPFLKPVYFYKFWSVILKGLKPGGRFSGSFFGFNDFWNTRTDMTFLNREMICHLFSQFKIEYFQEEEKDEMDALGYYKHWHKFFIVAKKIALEHHHHHH | not soluble
9 | MNLFFDTELGKQQNKATHKIRVMSEAWLEKNGYCPCCGSKPMQRFANNKPVADLFCPNCHEQYELKSKNQKTIGNSVPDGAYHTMLERIRSDTNPNFFFLAYKKADYSIRQLVLVPKHFITPDMIIPRNKGIKNRPNHIMCSINLAPLPESGKIFLIDNSRIIEPETVLKKWQSNLFLRNQNAERKGWLLAVMKCIDQLPEEFTLSQMYEFENKLSIQFPQNNHIRDKIRQQLQILRDQNTIEFIGRGLYKKS | not soluble
10 | MNLFYNPKGVGDVAFIQIEPSVGPFEYEQKHGVVEIKKENEVVGYNIFNVSNNVTINDNGHIKLTTELIKDLQQLITEAGFDYQLDTDVSPKFVVGYVETKEKHPNADKLSVLNVNVGTEKLQIVCGAPNVESGQKVVVAKVGAVMPSGMVIKDAQLRGVDSSGMICSMKELNLPNAPKEKGIMVLNDDYDIGQAFFELEHHHHHH | soluble
11 | MNLHEYQAKEILARYGVPVPPGKVAYTPEEAKRIAEEFGKRVVIKAQVHVGGRGKAGGVKLADTPQEAYEKAQAILGMNIKGLTVKKVLVAEAVDIAKEYYAGLILDRAKKRVVLMLSKEGGVDIEEVAAERPEAIHKFWIDPHKGFRPFEAREMVKRAGLEGNLNKLAQVLVALYRAYEGVDASIAEINPLVVTTDGGIVAADAKIVLDDNALFRHPDLAELREVEAEHPLEVEASNYGFAYVKLDGNIGIIGNGAGLVMYTLDLVNRVGGKPANFLDIGGGAKADVVYNALKVVLKDPDVKGVFINIFGGITRADEVAKGVIRALEEGLLTKPVVMRVAGTAEEEAKKLLEGKPVYMYPTSIEAAKVIVAMVGGAA | soluble
12 | MNLPGAAEPQGGNEIPEYTGVAWHYGQPLVEQRYFERSGGFVDRSHRGVLCISGEDAAVFLNNLVSQKLIDLPHPWAGEALDLDIQGHVVHHMEIIATDEVFYVHVPAAQLESLHTFFTRMIFWSKVTIEVIDAAVISVISAQHLDALVDVPLPEALAVSPVIDFSLPRRDILVPRASLMAVAASLQEHGFQPAGMMAYTAARVRSVQPVMSLDMDATTIPHEAASLIGRGDHIGAVHLNKGCYRGQETVGRVENLGRSPRVLVMVLIDGSAPEQPHPAAPLTAGGRTVGFLGTVVDDFELGPIGLAVVKRSALKSATLQAGDDVALSIDPDSLPHDDGEKAGRVAINKLRGL | not soluble
13 | MNLTNYHSHTLYCDGRAGMEDFIRFAISRGFTSYGISSHAPLPFPTHWTMEWDRMDDYLDEFTRMKEKYASEIELAVGLEIDYLNEDSNPSVRRFQELPLDYRIGSVHLLYNDRDEVVDIDVCAEVFRDIVDQHFGGDLDRVIHLYYDRLLRMVELGGFDILGHADKMHHNAACYRPGLLDESWYDALIHDYFSAVAAKGYIVEINTKALHHLNTFFPNERYFPLLKELGVRVQVNSDSHYPERINSGRPEALAALQKAGFETVTEWHGGKWIEMPL | not soluble
14 | MNLYLITFQSSLNRIESVYDCHKDLFVEIEKFFTLHLVPYTEAASIPADAYRMAFIASGGVEKMVTQHFELLPYPIHLLTDGQQNSLAASLEIATWIRSKGMKVHIIHGTIPNMVKQLIDHHKAFAAQREVRGKRIGVVGYSSPWLVASNVDYLLAKRRWGIEFIDIPMEEVYCLFYQIKDDDIGYEASVFANRAIACREGTPEDLLKAMRLYQAVKIICEKKKLDAVTLSCFSLIEKLGTTGCLALALLNDEGIPAGCEGDLQSIFTLLIAKTLTGQAGFMANPAFINDDQNEIVMAHCTIATKMVDQFIIRNHFETETGIAIQGILHPGGITMIKCAGECLDEYFVSTGQLIENTNYINACRTQARIKLDKPVDYFMRNPLGNHHIILMGDHEKVIHEFMQLNSCKLVE | not soluble
15 | MNMIDQLNITDFQVFTDENSDKFVSKIYKFSSKMILSDFHAQPQGFLNGGASLALAEITAGMASNAIGSGQYFAFGQSINANHLNPKKCEGFVNARGLLLKNGKRNHVWEIKITDENETLISQITVVNALVPQKNSDKLEHHHHHH | soluble
